According to patent US20140173783:

Tests used:
[1] = system: ZFN 25717 (E32 ZFN6 monomer) (artificial); test: cell_activity; settings: pair 25716/25717, NGS indels in maize Hi-II callus
[2] = system: ZFN 25716 (E32 ZFN6 monomer) (artificial); test: cell_activity; settings: pair 25716/25717, NGS indels in maize Hi-II callus

Row | Sequence | activity (% of IPPK2 ZFN activity) [1] | activity (% of IPPK2 ZFN activity) [2]
1 | CGGAAGCGGATGGCCCGCTTCTTTAGAA (double strand) [25717 target] | 380 | 
2 | TGATCGCATCGGGCATCGGCGACTGATG (double strand) [25716 target] |  | 380
